Laboratory results reported in IntAct's records for PubMed 17986188.

B1: Cell division protein FtsA (Escherichia coli (strain K12)), P0ABH0 (parent)
chain: MIKATDRKLVVGLEIGTAKVAALVGEVLPDGMVNIIGVGSCPSRGMDKGGVNDLESVVKCVQRAIDQAELMADCQISSVYLALSGKHISCQNEIGMVPISEEEVTQEDVENVVHTAKSVRVRDEHRVLHVIPQEYAIDYQEGIKNPVGLSGVRMQAKVHLITCHNDMAKNIVKAVERCGLKVDQLIFAGLASSYSVLTEDERELGVCVVDIGGGTMDIAVYTGGALRHTKVIPYAGNVVTSDIAYAFGTPPSDAEAIKVRHGCALGSIVGKDESVEVPSVGGRPPRSLQRQTLAEVIEPRYTELLNLVNEEILQLQEKLRQQGVKHHLAAGIVLTGGAAQIEGLAACAQRVFHTQVRIGAPLNITGLTDYAQEPYYSTAVGLLHYGKESHLNGEAEVEKRVTASVGSWIKRLNSWLRKEF
partner: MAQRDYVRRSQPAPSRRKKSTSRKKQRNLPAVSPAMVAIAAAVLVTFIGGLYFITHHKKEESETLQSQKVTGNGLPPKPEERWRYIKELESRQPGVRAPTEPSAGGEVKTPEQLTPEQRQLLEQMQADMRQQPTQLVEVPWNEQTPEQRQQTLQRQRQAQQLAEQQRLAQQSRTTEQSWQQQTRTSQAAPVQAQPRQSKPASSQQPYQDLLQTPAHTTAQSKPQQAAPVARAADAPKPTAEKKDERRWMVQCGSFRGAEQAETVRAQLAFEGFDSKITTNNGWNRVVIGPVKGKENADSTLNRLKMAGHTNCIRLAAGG
B2: Cell division protein FtsA (Escherichia coli (strain K12)), P0ABH0 (parent)
chain: B1 chain

Variants of: B1
Details: with ftsn_ecoli ftsN

| effect of a mutation on the interaction | Variant |
| --- | --- |
| decreasing interaction strength | MIKATDRKLVVGLEIGTAKVAALVGEVLPDGMVNIIGVGSCPSRGMDKGGVNDLESVVKCVQRAIDQAELAADCQISSVYLALSGKHISCQNEIGMVPISEEEVTQEDVENVVHTAKSVRVRDEHRVLHVIPQEYAIDYQEGIKNPVGLSGVRMQAKVHLITCHNDMAKNIVKAVERCGLKVDQLIFAGLASSYSVLTEDERELGVCVVDIGGGTMDIAVYTGGALRHTKVIPYAGNVVTSDIAYAFGTPPSDAEAIKVRHGCALGSIVGKDESVEVPSVGGRPPRSLQRQTLAEVIEPRYTELLNLVNEEILQLQEKLRQQGVKHHLAAGIVLTGGAAQIEGLAACAQRVFHTQVRIGAPLNITGLTDYAQEPYYSTAVGLLHYGKESHLNGEAEVEKRVTASVGSWIKRLNSWLRKEF [M71A] |
| decreasing interaction strength | MIKATDRKLVVGLEIGTAKVAALVGEVLPDGMVNIIGVGSCPSRGMDKGGVNDLESVVKCVQRAIDQAPLMADCQISSVYLALSGKHISCQNEIGMVPISEEEVTQEDVENVVHTAKSVRVRDEHRVLHVIPQEYAIDYQEGIKNPVGLSGVRMQAKVHLITCHNDMAKNIVKAVERCGLKVDQLIFAGLASSYSVLTEDERELGVCVVDIGGGTMDIAVYTGGALRHTKVIPYAGNVVTSDIAYAFGTPPSDAEAIKVRHGCALGSIVGKDESVEVPSVGGRPPRSLQRQTLAEVIEPRYTELLNLVNEEILQLQEKLRQQGVKHHLAAGIVLTGGAAQIEGLAACAQRVFHTQVRIGAPLNITGLTDYAQEPYYSTAVGLLHYGKESHLNGEAEVEKRVTASVGSWIKRLNSWLRKEF [E69P] |

Variants of: B2
Details: with ftsz_ecoli ftsZ

| effect of a mutation on the interaction | Variant |
| --- | --- |
| increasing interaction strength | R286W |
| decreasing interaction strength | MIKATDRKLVVGLEIGTAKVAALVGEVLPDGMVNIIGVGSCPSRGMDKGGVNDLESVVKCVQRAIDQAPLMADCQISSVYLALSGKHISCQNEIGMVPISEEEVTQEDVENVVHTAKSVRVRDEHRVLHVIPQEYAIDYQEGIKNPVGLSGVRMQAKVHLITCHNDMAKNIVKAVERCGLKVDQLIFAGLASSYSVLTEDERELGVCVVDIGGGTMDIAVYTGGALRHTKVIPYAGNVVTSDIAYAFGTPPSDAEAIKVRHGCALGSIVGKDESVEVPSVGGRPPRSLQRQTLAEVIEPRYTELLNLVNEEILQLQEKLRQQGVKHHLAAGIVLTGGAAQIEGLAACAQRVFHTQVRIGAPLNITGLTDYAQEPYYSTAVGLLHYGKESHLNGEAEVEKRVTASVGSWIKRLNSWLRKEF [E69P] |
